B1: 抗人OX40人源化抗体3C9 (antibody, IgG1, V domains shown)
VH: QVQLVQSGAEVKKPGASVKVSCKASGYTFTSYIMHWVRQAPGQGLEWIGYINPYNGGSRYNDKFKVRATLTSDKSISTAYMELSRLRSDDTAVYYCARGDYDDGAWFGYWGQGTTVTVSS
VL: DIVMTQSPLSLPVTPGEPASISCKSSQSLLHSNGITYLFWYLQKPGQSPQLLIYRMSNRASGVPDRFSSSGSGTDFTLKISRVEAEDVGVYYCGQNLELPVTFGQGTKLEIK
notes: expressed in 293 cells; also called hu3C9; hu3C9-hIgG1
B2: 抗人OX40人源化抗体3F5 (antibody, IgG1, V domains shown)
VH: EVQLVESGGGLVQPGGSLRLSCAASGFTFGSYAMSWVRQAPGKGLEWVAEISSGGIYTYYADIVTGRFTTSRDNAKNSLYLQMNSLRAEDTAVYYCVRDFDYRFAYWGQGTLVTVSS
VL: DIQMTQSPSSLSASVGDRVTITCKSSQEISGYLAWLQQKPGKAPKRLIYAASSLDVGVPSRFSGSRSGSEYTLTISSLQPEDFATYYCFQYASYPYTFGQGTKLEIK
notes: expressed in 293 cells; also called hu3F5; hu3F5-hIgG1
B3: 抗人OX40人源化抗体15A7 (antibody, IgG1, V domains shown)
VH: QVQLQESGPGLVKPSETLSLTCTVSGYSITSDYWNWIRQPPGKGLEYMGYISYSGSTSYNPSLKSRITISRDTSKNQYSLKLSSVTAADTAVYYCARGGYYYGSSYPYYFDYWGQGTLVTVSS
VL: DIQMTQSPSTLSASVGDRVTITCKASQNVGTAVAWYQQKPGKAPKLLIYSPSNRYTGVPSRFSGSGSGTEFTLTISSLQPDDFATYYCQQYSSYRTFGGGTKVEIK
notes: expressed in 293 cells; also called hu15A7; hu15A7-hIgG1
B4: 抗人OX40人源化抗体1A2 (antibody, V domains shown)
VH: QVTLKESGPTLVKPTQTLTLTCTFSGFSLATSGVAVGWIRQPPGKALEWLAHIWWDDVKRYNPSLQGRLTITKDTSKNQVVLTMTNMDPVDTATYYCARMDWDGLAYWGQGTLVTVSS
VL: EIVLTQSPATLSLSPGERATLSCSVSSSISSSNLHWYQQKPGQAPRPWIYGTSNLATGIPARFSGSGSGTDYTLTISSLEPEDFAVYYCQQYSSYPFTFGGGTKVEIK
notes: expressed in 293 cells; also called hu1A2; 1A2人源化抗体
B5: 抗人OX40鼠源抗体3D9 (antibody, V domains shown)
VH: QVQLQESGPGLVAPSQSLSITCTVSGFSLTTYGITWVRQPPGKGLEWLGVIWDDGSTNYHSALISRLSISKNNYKSQVFLTLNSLQTDDTATYYCAKLLPYYFDSWGQGTTLTVSS
VL: DIVMTQSPSSLSASLGDRVTISCRASQDISNYLNWYQQKPNGTVKLLIYYTSRLLSGVPSRFSGSGSGTDYSLTISSLEQEDIATYFCQQGYTLPPTFGGGTKLEIK
notes: Mouse hybridoma antibody purified by Protein A
B6: 抗人OX40鼠源抗体3C9 (antibody, V domains shown)
VH: DVQLQQSGPELVKPGASVRMSCKASGYTFTSYIMHWVKQKPGQGLEWIGYINPYNGGSRYNDKFKVKATLASDKSSSTAYMELSSLTSADSAVYYCARGDYDDGAWFGYWGQGTLVTVSA
VL: EIQMTQAAPSVPVTPGESVSISCKSSQSLLHSNGITYLFWYLQRPGQSPQLLIYRMSNRASGVPDRFSSSGSGTAFTLKISRVEADDVGVYYCGQNLELPVTFGAGTKVELK
notes: as for B5
B7: 抗人OX40鼠源抗体1G4 (antibody, V domains shown)
VH: RVQLVQSGPELKKPGETVKISCKASGYTFTDYSIHWVKQAPGKGLKWMGWINTETGESTYADDFKGRFVFSSEISATTAYLQINSLKNEDTSTYFCAWVPPWYFDVWGAGTTVTVSS
VL: DIVMTQSTTSLSVSLGDRVTINCRTSQDITNYLNWYQQKPDGTIKLLIYYTSMLKSGVPSRFSGSGSGTDYSLTISHLEQDDIATYFCQQGNTPPLTFGAGTKLELK
notes: as for B5
B8: 抗人OX40鼠源抗体15A7 (antibody, V domains shown)
VH: QVQLQQSGPGLAKPSQTLSLTCSVTGYSITSDYWNWIRKFPGNKLEYMGYISYSGSTSYNPSLKSRISITRDTSKNQYYLQLSSVTTEDTATYYCARGGYYYGSSYPYYFDYWGQGTTLTVSS
VL: DIVMTQSTKFMSTTVGDRVSITCKASQNVGTAVAWYQQKPGQSPKLLIYSPSNRYTGVPDRFTGSGSGTDFTLTITNVQSEDLADYFCQQYSSYRTFGGGTKLEIK
notes: as for B5
B9: 抗人OX40鼠源抗体17C1 (antibody, V domains shown)
VH: DVQLQESGPGLVKPSQSLSLTCTVTGYSITSDYAWNWIRQFPGNKLEWMGYITYSGFTRYNPSLKSRFSITRDTSKNQFFLQLNSVTTEDTATYYCVYPAWFAYWGQGTLVTVSA
VL: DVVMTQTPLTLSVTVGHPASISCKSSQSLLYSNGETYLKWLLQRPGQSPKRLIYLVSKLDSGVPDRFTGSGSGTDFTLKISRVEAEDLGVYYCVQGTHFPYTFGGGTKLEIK
notes: as for B5
B10: 抗人OX40鼠源抗体1A2 (antibody, IgG1, V domains shown)
VH: EVQLKESGPGIVQPSQSLSLTCTFSGFSLATSGVAVGWIRQPSGKGLEWLAHIWWDDVKRYNPSLQGRLTISKDTASSQVFLKISSVDTADTATYYCARMDWDGLAYWGAGTTVTVSA
VL: EIVLTQSPALMAASPGEKVTITCSVSSSISSSNLHWYQQKSETSPKPWIYGTSNLATGVPVRFSGSGSGTSYSLTISSMEAEDAATYYCQQYSSYPFTFGGGTKLEIK
notes: Mouse hybridoma antibody purified by Protein A; also called 1A2-mIgG1
B11: 抗人OX40鼠源抗体3F5 (antibody, V domains shown)
VH: EVQLVESGGDLVRPGGSLKLSCAASGFTFGSYAMSWVRQSPEKRLEWVAEISSGGIYTYYADIVTGRFTTSRDNAKNTLYLEMSSLRSEDTAMYYCVRDFDYRFAYWGQGTLVTVSA
VL: DIQMTQTTSSLSASLGDRVTISCKSSQEISGYLAWLQQKPDGTVKRLIYAASSLDVGVPSRFSGSRSGSDYSLTISNLEPEDIATYYCFQYASYPYTFGGGTKLEIK
notes: as for B5
B12: 抗人OX40鼠源抗体9G7 (antibody, V domains shown)
VH: EVKLVESGGGLVQPGGSLKLSCAASGFTFSDYYMYWVRQTPEKRLEWVAYISNGDISTYYPDTVKGRFTISRDNAKNTLYLQMSRLKSEDTAMYYCARDDGYSAWFAYWGQGTLVTVSA
VL: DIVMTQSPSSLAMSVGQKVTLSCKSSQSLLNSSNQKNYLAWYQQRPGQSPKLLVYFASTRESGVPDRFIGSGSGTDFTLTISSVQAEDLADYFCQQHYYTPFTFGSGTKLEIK
notes: as for B5

The binders below were run against T1, 人源OX40的胞外区与小鼠Fc融合蛋白(OX40-ECD-mFc) (human, UniProt P43489 29-214) (assay: ELISA on OX40-mFc (Fig. 7)).
T1 construct: extracellular domain; also called OX40-mFc; not shown: mouse Fc
T1 sequence (looked up): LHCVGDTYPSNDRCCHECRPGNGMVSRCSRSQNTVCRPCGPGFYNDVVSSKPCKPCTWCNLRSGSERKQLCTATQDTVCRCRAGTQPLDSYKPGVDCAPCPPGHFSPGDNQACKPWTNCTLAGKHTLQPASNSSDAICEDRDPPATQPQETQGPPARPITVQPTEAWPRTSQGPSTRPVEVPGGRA

Binder	binding result
B1	binds
B2	binds
B3	binds
B4	binds

These binders were tested against T2, 人源OX40的胞外区与人Fc融合蛋白(OX40-hFc) (human, UniProt P43489 29-214) (assay: ELISA on coated OX40-hFc (Fig. 1)).
T2 construct: extracellular domain; Coated on ELISA plates at 2 μg/mL; not shown: human Fc
T2 sequence (looked up): T1 sequence (looked up)

Binder	binding result
B5	binds
B6	binds
B7	binds
B8	binds
B9	binds
B10	binds
B11	binds
B12	binds

Each binder was assayed against T3, 人OX40 (Jurkat-OX40细胞) (human, UniProt P43489 29-277) (assay: FACS on Jurkat-OX40 cells (Fig. 3)).
T3 construct: whole, on cells; also called OX40受体; CD134
T3 sequence (looked up): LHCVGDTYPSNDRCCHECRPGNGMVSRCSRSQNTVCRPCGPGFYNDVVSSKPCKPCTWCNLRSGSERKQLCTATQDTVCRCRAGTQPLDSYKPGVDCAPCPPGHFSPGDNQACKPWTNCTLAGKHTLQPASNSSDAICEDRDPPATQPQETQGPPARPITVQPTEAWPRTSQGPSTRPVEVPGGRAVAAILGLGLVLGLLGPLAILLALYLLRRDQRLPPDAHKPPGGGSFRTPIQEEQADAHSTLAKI

Binder	binding result
B5	binds
B6	binds
B7	binds
B8	binds
B9	binds
B10	binds
B11	binds
B12	binds

What follows are binders tested against T3, 人OX40 (Jurkat-OX40细胞) (assay: FACS on Jurkat-OX40 cells (Fig. 9)).

Binder	binding result
B1	binds
B2	binds
B3	binds
B4	binds
